# US7135457 (CYTOGEN, dated 2006)
# Where two headings read alike, the source gives them in different places.
# T1: human D2H transporter receptor domain, amino acid residues 387-685, His-tag fusion protein (human, UniProt Q07837 387-685)
# T1 construct: Expressed as His-tag fusion, purified under denaturing conditions, coated on plates; not shown: poly-histidine tag (pET His-tag) at the NH2-terminal end
# T1 sequence: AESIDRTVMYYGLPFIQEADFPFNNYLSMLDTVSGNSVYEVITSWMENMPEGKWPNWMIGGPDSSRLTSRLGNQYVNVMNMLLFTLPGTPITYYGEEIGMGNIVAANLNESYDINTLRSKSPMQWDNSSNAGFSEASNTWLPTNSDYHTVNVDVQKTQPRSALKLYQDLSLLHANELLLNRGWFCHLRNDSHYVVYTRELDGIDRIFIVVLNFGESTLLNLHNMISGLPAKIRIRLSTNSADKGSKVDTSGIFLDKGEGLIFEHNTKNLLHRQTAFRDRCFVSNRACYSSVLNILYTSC
# T2: human intestinal peptide-associated transporter HPT1 receptor domain, amino acid residues 29-273, His-tag … (human, UniProt Q12864 29-273)
# T2 construct: Expressed as His-tag fusion, purified under denaturing conditions, coated on plates; not shown: poly-histidine tag (pET His-tag) at the NH2-terminal end
# T2 sequence: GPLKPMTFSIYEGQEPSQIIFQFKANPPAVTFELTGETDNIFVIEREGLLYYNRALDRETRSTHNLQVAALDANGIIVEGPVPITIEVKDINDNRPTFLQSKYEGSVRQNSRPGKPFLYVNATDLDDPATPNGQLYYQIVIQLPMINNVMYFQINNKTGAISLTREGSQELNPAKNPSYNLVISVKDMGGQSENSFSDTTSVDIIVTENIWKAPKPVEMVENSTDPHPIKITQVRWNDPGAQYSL
# Legend:
# [1] = molecular target: T1, human D2H transporter receptor domain, …; assay: phage ELISA, coated D2H domain
# Description: (§1) 6.6. Receptor ELISA Procedure 96 well plates were coated overnight with GIT receptor, BSA and, optionally, IDE (insulin degrading enzyme, an irrelevant His-fusion protein) or hTF. The plates were blocked for one hour with 0.5% BSA-PBS. After clarification, the amplified phage were diluted 1:100 in 1% BSA plus 0.05% Tween 20 in PBS and added to the plates. Following incubation of the plates on a rotator for 1 to 2 hours, the plates were washed 5 times with 1% BSA plus 0.05% Tween 20 in PBS. […] After the plates were washed 5 times, as described above, TMB substrate was added to the wells. The plates were read at 650 nm absorbance.
# [2] = molecular target: T1, human D2H transporter receptor domain, …; assay: phage ELISA, OD on D2H over OD on BSA
# Description: as §1
# [3] = molecular target: T1, human D2H transporter receptor domain, …; assay: phage ELISA, OD on D2H over OD on BSA; remark: listed apart in the source
# Description: as §1
# (§2) Binding to fixed Caco-2 cells, D2H and BSA was examined.
# [4] = molecular target: T1, human D2H transporter receptor domain, …; assay: phage ELISA, coated D2H domain; remark: listed apart in the source
# Description: as §1, §2
# [5] = molecular target: T2, human intestinal peptide-associated …; assay: phage ELISA, coated HPT1 domain
# [6] = molecular target: T2, human intestinal peptide-associated …; assay: phage ELISA, OD on HPT1 over OD on BSA
# [7] = molecular target: T3, human sucrase-isomaltase complex (hSI) receptor domain, amino acid residues 272-667, His-tag fusion protein (human, UniProt P14410 272-667); assay: phage ELISA, coated hSI domain
# T3 construct: Expressed as His-tag fusion, purified under denaturing conditions (urea or guanidine HCl), coated on plates; also called hS1 receptor domain; not shown: poly-histidine tag (pET His-tag) at the NH2-terminal end
# T3 sequence (P14410 272-667, one chain of several): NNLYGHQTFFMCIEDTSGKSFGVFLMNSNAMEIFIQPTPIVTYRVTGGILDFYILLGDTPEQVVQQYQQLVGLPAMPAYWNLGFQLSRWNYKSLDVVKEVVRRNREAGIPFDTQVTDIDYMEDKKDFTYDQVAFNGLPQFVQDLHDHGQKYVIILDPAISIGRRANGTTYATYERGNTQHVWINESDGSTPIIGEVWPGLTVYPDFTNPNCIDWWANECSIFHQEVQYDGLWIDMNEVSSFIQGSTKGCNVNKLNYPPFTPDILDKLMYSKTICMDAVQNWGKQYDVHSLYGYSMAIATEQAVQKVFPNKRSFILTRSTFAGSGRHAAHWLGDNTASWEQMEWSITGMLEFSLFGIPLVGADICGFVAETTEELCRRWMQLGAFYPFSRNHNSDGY
# [8] = molecular target: T3, human sucrase-isomaltase complex (hSI) …; assay: phage ELISA, OD on hSI over OD on BSA
# [9] = molecular target: T2, human intestinal peptide-associated …; assay: phage ELISA, OD on HPT1 over OD on BSA; remark: listed apart in the source
# Description: as §1
binder,measurement,setting,value
REWRFAGPPLDLWAGPSLPSFNASSHPRALRTYWSQRPR (pIII and flanks not included) [phage DAX23],OD,[1],0.698 OD 650 nm
same,D2H/BSA,[2],5 ratio
RYSGLSPRDNGPACSQEATLEGCGAQRLMSTRRKGRNSRPGWTL (pIII and flanks not included) [phage DCX42],D2H/BSA,[3],2 ratio
same,OD,[4],0.158 OD 650 nm
SREEANWDGYKREMSHRSRFWDATHLSRPRRPANSGDPN (pIII and flanks not included) [phage HAX9],OD,[5],0.382 OD 650 nm
same,HPT/BSA,[6],5 ratio
RWCGADDPCGASRWRGGNSLFGCGLRCSAAQSTPSGRIHSTSTS (pIII and flanks not included) [phage DAB7],OD,[1],0.702 OD 650 nm
same,D2H/BSA,[2],8 ratio
RWCGAELCNSVTKKFRPGWRDHANPSTHHRTPPPSQSSP (pIII and flanks not included) [phage DAB3],OD,[1],0.406 OD 650 nm
same,D2H/BSA,[2],6 ratio
RSSANNCEWKSDWMRRACIARYANSSGPARAVDTKAAP (pIII and flanks not included) [phage DAB18],OD,[1],0.467 OD 650 nm
same,D2H/BSA,[2],5 ratio
SESGRCRSVSRWMTTWQTQKGGCGSNVSRGSPLDPSHQTGHATT (pIII and flanks not included) [phage DAX15],OD,[1],0.391 OD 650 nm
same,D2H/BSA,[2],4 ratio
RTTTAKGCLLGSFGVLSGCSFTPTSPPPHLGYPPHSVN (pIII and flanks not included) [phage SNiAX6],OD,[7],0.369 OD 650 nm
same,hSI/BSA,[8],7 ratio
SGRTTSEISGLWGWGDDRSGYGWGNTLRPNYIPYRQATNRHRYT (pIII and flanks not included) [phage DCX26],D2H/BSA,[3],4 ratio
same,OD,[4],0.956 OD 650 nm
RYKHDIGCDAGVDKKSSSVRGGCGAHSSPPRAGRGPRGTMVSRL (pIII and flanks not included) [phage DCX8],D2H/BSA,[3],3 ratio
same,OD,[4],0.163 OD 650 nm
SQGSKQCMQYRTGRLTVGSEYGCGMNPARHATPAYPARLLPRYR (pIII and flanks not included) [phage DCX11],D2H/BSA,[3],3 ratio
same,OD,[4],0.222 OD 650 nm
SPKLSSVGVMTKVTELPTEGPNAISIPISATLGPRNPLR (pIII and flanks not included) [phage SNiAX8],OD,[7],0.342 OD 650 nm
same,hSI/BSA,[8],5 ratio
SDHALGTNLRSDNAKEPGDYNCCGNGNSTGRKVFNRRRPSAIPT (pIII and flanks not included) [phage HAX42],OD,[5],0.32 OD 650 nm
same,HPT/BSA,[6],5 ratio
SKSGEGGDSSRGETGWARVRSHAMTAGRFRWYNQLPSDR (pIII and flanks not included) [phage DAB10],OD,[1],0.644 OD 650 nm
same,D2H/BSA,[2],4 ratio
REFAERRLWGCDDLSWRLDAEGCGPTPSNRAVKHRKPRPRSPAL (pIII and flanks not included; also called H44) [phage HAX40],OD,[5],0.991 OD 650 nm
same,HPT/BSA,[6],15 ratio
RMEDIKNSGWRDSCRWGDLRPGCGSRQWYPSNMRSSRDYPAGGH (pIII and flanks not included) [phage DAX24],OD,[1],0.591 OD 650 nm
same,D2H/BSA,[2],5 ratio
SGGEVSSWGRVNDLCARVSWTGCGTARSARTDNKGFLPKHSSLR (pIII and flanks not included) [phage SNi45],OD,[7],0.518 OD 650 nm
same,hSI/BSA,[8],9 ratio
SHPWYRHWNHGDFSGSGQSRHTPPESPHPGRPNATI (pIII and flanks not included) [phage DAX27],OD,[1],1.58 OD 650 nm
same,D2H/BSA,[2],4 ratio
SGFWEFSRGLWDGENRKSVRSGCGFRGSSAQGPCPVTPATIDKH (pIII and flanks not included) [phage DAB30],OD,[1],0.704 OD 650 nm
same,D2H/BSA,[2],6 ratio
RHISEYSFANSHLMGGESKRKGCGINGSFSPTCPRSPTPAFRRT (pIII and flanks not included) [phage HCA3],HPT1/BSA,[9],1 ratio
SKWSWSSRWGSPQDKVEKTRAGCGGSPSSTNCHPYTFAPPPQAG (pIII and flanks not included) [phage DAB24],OD,[1],1.8 OD 650 nm
same,D2H/BSA,[2],4 ratio
RWNWTVLPATGGHYWTRSTDYHAINNHRPSIPHQHPTPI (pIII and flanks not included) [phage DCX33],D2H/BSA,[3],6 ratio
same,OD,[4],0.616 OD 650 nm
SSSSDWGGVPGKVVRERFKGRGCGISITSVLTGKPNPCPEPKAA (pIII and flanks not included) [phage S22],OD,[7],0.399 OD 650 nm
same,hSI/BSA,[8],7 ratio
SDSDGDHYGLRGGVRCSLRDRGCGLALSTVHAGPPSFYPKLSSP (pIII and flanks not included) [phage SNiAX2],OD,[7],0.383 OD 650 nm
same,hSI/BSA,[8],6 ratio
SVGNDKTSRPVSFYGRVSDLWNASLMPKRTPSSKRHDDG (pIII and flanks not included) [phage DCX45],D2H/BSA,[3],4 ratio
same,OD,[4],0.336 OD 650 nm
